Article PMC3738525
Several values for one entry are separate records, joined by “and”; a condition that tells them apart may be missing. Equal entries are not always repeated.

Assays:
[1] = biological target: endogenous cofilin (human (endogenous in platelets and HUVEC)) (UniProt P23528); experiment: cross-linking; human washed platelets (resting, or stimulated with thrombin, with or without Y27632) lysed in NP-40 lysis buffer with BMOE or BMH (0.2 mM; 0.1 mM BMOE in Figure 7), 20 minutes on ice; immunoblot
[2] = biological target: endogenous cofilin (human (endogenous in platelets and HUVEC)) (UniProt P23528); experiment: cross-linking; intact endothelial cells (HUVEC, also transfected) in suspension, BMOE or BMH 1 mM or DMSO, 37 °C, one hour; Laemmli lysis, SDS-PAGE, immunoblot
[3] = biological target: recombinant (His)6-tagged human cofilin (human) (UniProt P23528); experiment: cross-linking; phosphorylated (by GST-LIMK2) and unphosphorylated His-cofilin (16 μg) cross-linked with 2 and 20 mM BMOE
[4] = biological target: recombinant (His)6-tagged human cofilin (human) (UniProt P23528); experiment: cross-linking; recombinant His-cofilin 10 µM to 40 µM in PBS pH 7.2, BMOE (two fold molar excess) or DMSO, one hour at room temperature; SDS-PAGE, Coomassie blue; oligomers only at >10 µM

| stoichiometry N [1] | stoichiometry N [2] | stoichiometry N [3] | stoichiometry N [4] | Substance |
| --- | --- | --- | --- | --- |
| 4 | 4 | – | – | endogenous cofilin (from UniProt P23528 1-166) (natural protein) |
| – | – | 2 and 3 | 2 and 4 and 5 | recombinant (His)6-tagged human cofilin (from UniProt P23528 1-166) (natural protein) |
